Experiments:
4H2729-bA = molecular target: T1, 4H2729-bA; experiment: two-hybrid library CCNG1;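 note: natural log of median RNA to DNA barcode read ratio; higher means stronger binding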
T1 chain: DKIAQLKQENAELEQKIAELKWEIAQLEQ

4H908-bA = molecular target: T2, 4H908-bA; experiment: two-hybrid library CCNG1;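 note: natural log of median RNA to DNA barcode read ratio; higher means stronger binding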
T2 chain: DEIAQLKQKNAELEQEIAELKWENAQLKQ

4H883-bA = molecular target: T3, 4H883-bA; experiment: two-hybrid library CCNG1;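 note: natural log of median RNA to DNA barcode read ratio; higher means stronger binding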
T3 chain: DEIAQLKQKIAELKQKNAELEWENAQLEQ

4H4001-bA = molecular target: T4, 4H4001-bA; experiment: two-hybrid library CCNG1;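 note: natural log of median RNA to DNA barcode read ratio; higher means stronger binding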
T4 chain: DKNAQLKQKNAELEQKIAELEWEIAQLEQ

4H331-bA = molecular target: T5, 4H331-bA; experiment: two-hybrid library CCNG1;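 note: natural log of median RNA to DNA barcode read ratio; higher means stronger binding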
T5 chain: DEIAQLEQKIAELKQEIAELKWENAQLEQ

P4A-bS = molecular target: T6, P4A-bS; experiment: two-hybrid library CCNG1;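 note: natural log of median RNA to DNA barcode read ratio; higher means stronger binding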
T6 chain: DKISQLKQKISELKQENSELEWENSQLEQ

4H754-bA = molecular target: T7, 4H754-bA; experiment: two-hybrid library CCNG1
T7 chain: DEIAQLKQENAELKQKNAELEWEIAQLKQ

4H717-bA = molecular target: T8, 4H717-bA; experiment: two-hybrid library CCNG1
T8 chain: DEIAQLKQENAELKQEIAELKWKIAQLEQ

4H462-bA = molecular target: T9, 4H462-bA; experiment: two-hybrid library CCNG1
T9 chain: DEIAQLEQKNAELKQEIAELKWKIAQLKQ

4H3606-bA = molecular target: T10, 4H3606-bA; experiment: two-hybrid library CCNG1
T10 chain: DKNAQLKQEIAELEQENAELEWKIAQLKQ

4H72-bA = molecular target: T11, 4H72-bA; experiment: two-hybrid library CCNG1
T11 chain: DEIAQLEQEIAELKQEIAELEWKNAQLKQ

4H687-bA = molecular target: T12, 4H687-bA; experiment: two-hybrid library CCNG1
T12 chain: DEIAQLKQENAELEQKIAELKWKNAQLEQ

4H3427-bA = molecular target: T13, 4H3427-bA; experiment: two-hybrid library CCNG1
T13 chain: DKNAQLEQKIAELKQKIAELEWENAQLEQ

4H568-bA = molecular target: T14, 4H568-bA; experiment: two-hybrid library CCNG1
T14 chain: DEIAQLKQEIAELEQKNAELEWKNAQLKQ

4H918-bA = molecular target: T15, 4H918-bA; experiment: two-hybrid library CCNG1
T15 chain: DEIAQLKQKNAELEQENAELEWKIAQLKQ

4H3782-bA = molecular target: T16, 4H3782-bA; experiment: two-hybrid library CCNG1
T16 chain: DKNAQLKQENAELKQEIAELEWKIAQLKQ

4H3185-bA = molecular target: T17, 4H3185-bA; experiment: two-hybrid library CCNG1
T17 chain: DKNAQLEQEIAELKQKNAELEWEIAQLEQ

4H3843-bA = molecular target: T18, 4H3843-bA; experiment: two-hybrid library CCNG1
T18 chain: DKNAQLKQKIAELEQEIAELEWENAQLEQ

4H3855-bA = molecular target: T19, 4H3855-bA; experiment: two-hybrid library CCNG1
T19 chain: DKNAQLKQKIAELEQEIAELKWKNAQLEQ

4H967-bA = molecular target: T20, 4H967-bA; experiment: two-hybrid library CCNG1
T20 chain: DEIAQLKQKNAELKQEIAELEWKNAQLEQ

4H3112-bA = molecular target: T21, 4H3112-bA; experiment: two-hybrid library CCNG1
T21 chain: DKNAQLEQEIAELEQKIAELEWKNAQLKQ

4H3297-bA = molecular target: T22, 4H3297-bA; experiment: two-hybrid library CCNG1
T22 chain: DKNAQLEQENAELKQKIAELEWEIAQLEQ

4H338-bA = molecular target: T23, 4H338-bA; experiment: two-hybrid library CCNG1
T23 chain: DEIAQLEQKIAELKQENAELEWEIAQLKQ

4H454-bA = molecular target: T24, 4H454-bA; experiment: two-hybrid library CCNG1
T24 chain: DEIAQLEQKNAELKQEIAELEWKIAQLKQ

4H3354-bA = molecular target: T25, 4H3354-bA; experiment: two-hybrid library CCNG1
T25 chain: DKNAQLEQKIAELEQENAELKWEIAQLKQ

4H3189-bA = molecular target: T26, 4H3189-bA; experiment: two-hybrid library CCNG1
T26 chain: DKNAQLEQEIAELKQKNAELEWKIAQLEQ

4H797-bA = molecular target: T27, 4H797-bA; experiment: two-hybrid library CCNG1
T27 chain: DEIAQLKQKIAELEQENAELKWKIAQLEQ

4H2697-bA = molecular target: T28, 4H2697-bA; experiment: two-hybrid library CCNG1
T28 chain: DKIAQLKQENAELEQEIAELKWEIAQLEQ

4H3926-bH = molecular target: T29, 4H3926-bH; experiment: two-hybrid library CCNG1
T29 chain: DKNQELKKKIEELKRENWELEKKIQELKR

4H953-bA = molecular target: T30, 4H953-bA; experiment: two-hybrid library CCNG1
T30 chain: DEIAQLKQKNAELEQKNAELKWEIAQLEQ

4H2667-bA = molecular target: T31, 4H2667-bA; experiment: two-hybrid library CCNG1
T31 chain: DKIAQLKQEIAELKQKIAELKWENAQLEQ

4H607-bA = molecular target: T32, 4H607-bA; experiment: two-hybrid library CCNG1
T32 chain: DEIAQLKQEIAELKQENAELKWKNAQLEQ

4H370-bA = molecular target: T33, 4H370-bA; experiment: two-hybrid library CCNG1
T33 chain: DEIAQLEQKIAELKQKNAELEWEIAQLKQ

4H2592-AA = molecular target: T34, 4H2592-AA; experiment: two-hybrid library CCmax; settings: mean of both orientations
T34 chain: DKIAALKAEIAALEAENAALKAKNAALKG

GCN2_T = experiment: two-hybrid library CCmax
4H452-AA = molecular target: T35, 4H452-AA; experiment: two-hybrid library CCmax; settings: mean of both orientations
T35 chain: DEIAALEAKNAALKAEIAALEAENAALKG

4H2774-AA = molecular target: T36, 4H2774-AA; experiment: two-hybrid library CCmax; settings: mean of both orientations
T36 chain: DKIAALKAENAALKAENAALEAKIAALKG

4H2931-AA = molecular target: T37, 4H2931-AA; experiment: two-hybrid library CCmax; settings: mean of both orientations
T37 chain: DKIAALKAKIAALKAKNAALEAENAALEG

4H_BCR = molecular target: T38, 4H_BCR; experiment: two-hybrid library CCmax; settings: mean of both orientations
T38 chain: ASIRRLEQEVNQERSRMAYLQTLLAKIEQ

4H2732-AA = molecular target: T39, 4H2732-AA; experiment: two-hybrid library CCmax; settings: mean of both orientations
T39 chain: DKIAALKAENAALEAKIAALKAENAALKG

4H3438-AA = molecular target: T40, 4H3438-AA; experiment: two-hybrid library CCmax; settings: mean of both orientations
T40 chain: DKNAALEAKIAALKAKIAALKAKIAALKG

4H2330-AA = molecular target: T41, 4H2330-AA; experiment: two-hybrid library CCmax; settings: mean of both orientations
T41 chain: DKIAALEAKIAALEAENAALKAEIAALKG

4H56-AA = molecular target: T42, 4H56-AA; experiment: two-hybrid library CCmax; settings: mean of both orientations
T42 chain: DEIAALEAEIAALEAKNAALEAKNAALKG

4H2466-AA = molecular target: T43, 4H2466-AA; experiment: two-hybrid library CCmax; settings: mean of both orientations
T43 chain: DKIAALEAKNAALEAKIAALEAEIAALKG

4H2124-AA = molecular target: T44, 4H2124-AA; experiment: two-hybrid library CCmax
T44 chain: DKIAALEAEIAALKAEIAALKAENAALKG

4H3001-AA = molecular target: T45, 4H3001-AA; experiment: two-hybrid library CCmax; settings: mean of both orientations
T45 chain: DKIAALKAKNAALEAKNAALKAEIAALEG

4H_APH = molecular target: T46, 4H_APH; experiment: two-hybrid library CCmax; settings: mean of both orientations
T46 chain: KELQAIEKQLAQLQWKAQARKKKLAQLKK

4H3015-AA = molecular target: T47, 4H3015-AA; experiment: two-hybrid library CCmax
T47 chain: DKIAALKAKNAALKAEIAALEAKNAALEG

4H347-AA = molecular target: T48, 4H347-AA; experiment: two-hybrid library CCmax; settings: mean of both orientations
T48 chain: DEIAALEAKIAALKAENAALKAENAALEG

4H2343-AA = molecular target: T49, 4H2343-AA; experiment: two-hybrid library CCmax; settings: mean of both orientations
T49 chain: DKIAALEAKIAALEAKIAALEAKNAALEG

4H3073-AA = molecular target: T50, 4H3073-AA; experiment: two-hybrid library CCmax
T50 chain: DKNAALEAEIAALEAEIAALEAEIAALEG

4H2253-AA = molecular target: T51, 4H2253-AA; experiment: two-hybrid library CCmax; settings: mean of both orientations
T51 chain: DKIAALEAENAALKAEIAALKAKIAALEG

4H_GCN4 = experiment: two-hybrid library CCmax; settings: mean of both orientations
4H_GCN4, sequence (chain, as listed by the source): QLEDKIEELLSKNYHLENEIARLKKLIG

4H249-AA = molecular target: T52, 4H249-AA; experiment: two-hybrid library CCmax; settings: mean of both orientations
T52 chain: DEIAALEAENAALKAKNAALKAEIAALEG

4H2165-AA = molecular target: T53, 4H2165-AA; experiment: two-hybrid library CCmax; settings: mean of both orientations
T53 chain: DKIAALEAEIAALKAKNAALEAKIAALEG

4H406-AA = molecular target: T54, 4H406-AA; experiment: two-hybrid library CCmax; settings: mean of both orientations
T54 chain: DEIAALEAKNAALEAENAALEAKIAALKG

Question: What does the source list for DKIAQLKQEIAELKQKIAELKWENAQLEQ [4H2667-bA]?
Answer: interaction score (4H2729-bA): 0.719; interaction score (4H908-bA): -0.691; interaction score (4H883-bA): -0.985; interaction score (4H4001-bA): 1.02; interaction score (4H331-bA): 0.846; interaction score (P4A-bS): -1.72; interaction score (4H754-bA): -1.06; interaction score (4H717-bA): -1.61; interaction score (4H462-bA): -0.172; interaction score (4H3606-bA): 0.0163; interaction score (4H72-bA): 0.976; interaction score (4H687-bA): -1.37; interaction score (4H3427-bA): 0.719; interaction score (4H568-bA): 0.688; interaction score (4H918-bA): -1.68; interaction score (4H3782-bA): -0.43; interaction score (4H3185-bA): -0.669; interaction score (4H3843-bA): 1.49; interaction score (4H3855-bA): -0.565; interaction score (4H967-bA): -1.08; interaction score (4H3112-bA): 0.96; interaction score (4H3297-bA): 0.0617; interaction score (4H338-bA): 0.164; interaction score (4H454-bA): 1.25; interaction score (4H3354-bA): -0.643; interaction score (4H3189-bA): -0.909; interaction score (4H797-bA): -1.09; interaction score (4H2697-bA): 0.478; interaction score (4H3926-bH): -1.75; interaction score (4H953-bA): -0.966; interaction score (4H2667-bA): 0.263; interaction score (4H607-bA): -1.24; interaction score (4H370-bA): -0.0583

Question: What does the source list for DKIAALEAEIAALKAEIAALKAENAALKG [4H2124-AA]?
Answer: interaction score (4H2592-AA): -0.666; interaction score (GCN2_T): -1.07; interaction score (4H452-AA): -1.95; interaction score (4H2774-AA): -1.38; interaction score (4H2931-AA): -1.45; interaction score (4H_BCR): -2.09; interaction score (4H2732-AA): -1.2; interaction score (4H3438-AA): -0.0325; interaction score (4H2330-AA): -1.05; interaction score (4H56-AA): -1.73; interaction score (4H2466-AA): -1.16; interaction score (4H2124-AA): 1.61; interaction score (4H3001-AA): -1.89; interaction score (4H_APH): -1.67; interaction score (4H3015-AA): -1.19; interaction score (4H347-AA): -1.2; interaction score (4H2343-AA): -0.871; interaction score (4H3073-AA): 1.36; interaction score (4H2253-AA): -1.14; interaction score (4H_GCN4): -1.93; interaction score (4H249-AA): -1.78; interaction score (4H2165-AA): -1.36; interaction score (4H406-AA): -1.71
